Experimental data taken from PMC6963987.

How the values were obtained:
Assay in all cases: SPR; Fcγ receptors immobilised, trastuzumab glycan variants as analyte; Biacore T200; relative binding (%) normalised with trastuzumab starting material; n = 3; procedure in ref. 54
FcγRIIIa F158 = FcγRIIIa F158 (UniProt P08637)
FcγRIIa R131 = target: FcγRIIa R131
FcγRIIIa V158 = target: FcγRIIIa V158
FcγRIIb/c = FcγRIIb/c (UniProt P31994)
Sequence of UniProt P31994 (P31994 43-217): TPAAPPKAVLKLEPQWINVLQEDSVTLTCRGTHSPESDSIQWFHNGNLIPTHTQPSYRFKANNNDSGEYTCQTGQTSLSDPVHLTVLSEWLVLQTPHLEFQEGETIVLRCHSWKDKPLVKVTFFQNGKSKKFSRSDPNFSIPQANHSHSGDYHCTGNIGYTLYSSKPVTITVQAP

Row | relative binding (% of trastuzumab starting material) (FcγRIIIa F158) [%] | relative binding (% of trastuzumab starting material) (FcγRIIa R131) [%] | relative binding (% of trastuzumab starting material) (FcγRIIIa V158) [%] | relative binding (% of trastuzumab starting material) (FcγRIIb/c) [%] | Substance
1 | 150 | 130 | 121 | 162 | Trastuzumab α-2,6-sialylated variant G2S2F ST6 (antibody)
2 | 124 |  | 120 |  | Trastuzumab hyper-galactosylated variant G2F (antibody)
3 | 62 |  |  |  | Trastuzumab α-2,3-sialylated variant G2S2F ST3 (antibody)
